The source of these data is patent US20200171068A1, “COMPOSITIONS COMPRISING APTAMERS AND NUCLEIC ACID PAYLOADS AND METHODS OF USING THE SAME” (Children's National Medical Center, priority 2017, published 2020).

One data set has as its system hematopoiesis. In words: Carboplatin-induced myelosuppression in mice. Format: in vivo, mouse. The method, then: (§1) For xenograft models, the NSG mice and BALB/c mice were subcutaneously injected with 2×10^6 viable MDA-MB-231 cells and TUBO cells in their right hind limbs, respectively. After the tumor grew to 1 cm in diameter, mice were randomly divided into the groups for each treatment. For no treatment control, 100 μl saline with 1% mouse serum was intravenously injected through tail vein. For treatment groups, 670 pmol/20 g chimeras and/or 5(0 mg/kg 5-fluorouracil (5-FU), or 120 mg/kg carboplatin were also intravenously injected. Tumor sizes were measured in two dimensions every 3 days. Tumor volume (V) was calculated using the following formula: V=(½) S^2×L (S. the shortest dimension; L, the longest dimension). Animals were euthanized when the tumor size was over 2 cm diameters, tumor ulcerated, or became necrotic. For chimera treatment in normal mice, C57BL/6 mice were treated with miR-26a chimera (670 pmol/20 g) everyday for 3 days by intravenous injection. At day 2, 150 mg/kg 5-FU and/or 120 mg/kg carboplatin was injected together with the chimera. Peripheral bloods were collected at day 5 and day 10 after the 5-FU treatment. Complete blood counts were measured by Hemavet 950FS (Drew Scientific, Miami Lakes, Fla., USA).

Data set [1] has as its system MDA-MB-231 cells. Kind of data set: Growth and apoptosis of MDA-MB-231 cells cultured with chimera. Format: cell-based, human. To be noted: 3 days of culture. The text has this: FIG. 1A-FIG. 1H show identification and validation of KIT-targeting miR-26a chimera that inhibits human breast cancer growth in vitro and in vivo. FIG. 1A is a graph showing the overall survival of basal-like breast cancer patients with higher or lower expression of miR-26a-2 based on the expression scores comparing to the mean value in TCGA cohort. FIG. 1B is a graph showing the binding of anti-KIT antibody and KIT DNA aptamer to MDA-MB-231 cell line. Other cell targeting aptamer is specific for Ramos cells. FIG. 1C depicts the secondary structure of KIT aptamer-miR-26a chimera. KIT DNA aptamer was linked with C3 linker to RNA passenger sequence that was complimentary binds to miR-26a mimic sequence. Another RNA passenger sequence binding to the 3′ of miR-26 mimic was conjugated with TEG-cholesterol. FIG. 1D is a graph showing specific miR-26a delivery by the miR-26a chimera. […] After 3 days of culture with miR-26a chimera or control chimera, MDA-MB-231 cell numbers (left) were counted using hemocytometer and Annexin V positive cells (%) (right) was determined by flow cytometry. […]
For aptamer binding assay, streptavidin-APC (Cat #554067) […] Bioscience, San Jose, Calif., USA) was used for detecting the biotin-conjugated aptamers by flow cytometry. […] Flow cytometry analysis was performed on FACS Canto II (BD Bioscience) and the data were analyzed with FlowJo (FLOWJO, Ashland, Oreg., USA). […]

For data set [2], the system named is MDA-MB-231 xenograft tumors. Kind of data set: MDA-MB-231 xenograft in NSG mice. Format: in vivo, mouse.
Source text: Xenograft model were generated 8-weeks old female immune-deficient NOD-scid IL2Rgamma^null (NSG™, Jackson Laboratories, Bar Harbar, Me., USA) using human breast cancer cell line. Syngeneic TUBO tumors were established in 8-weeks old female BALB/c mice (from Charles River Animal Facility, Frederick, Md., USA). These tumor-bearing mice were randomly assigned to each treatment group. Eight-week old male C57BL/6 mice and C57BL/6 ly5.2 mice (from Charles River Animal Facility, Frederick, Md., USA) were used for bone marrow transplantation assay. The mouse groups assigned for each treatment were not blinded. No statistical methods were used to pre-determined sample size for the analysis of mouse experiments. All the mice were maintained in the Research Animal Facility at Children's National Institute, Children's National Medical Center. The committee on the Use and Care of Animal at Children's National Institute approved all procedures involving experimental animals.
as §1

The subject of data set [3] is MDA-MB-231 cells. Kind of data set: miR-26a delivery into MDA-MB-231 cells, qPCR. Format: cell-based, human. To be noted: two days after incubation, compared to control chimera. The source says:
Total RNAs from cell lines and mouse tissues were extracted by RNeasy Plus Mini kit (Qiagen, Valencia, Calif., USA). miR-26a levels were quantified by Taqman microRNA assay (assay ID; 000405) that covered both has-miR-26a-5p and mmu-miR-26a-5p (Thermo Fisher Scientific) according to manufacturer's protocol. U6 snRNA (Taqman microRNA assay, assay ID; 001973) was used as endogenous control. For qPCR of other genes, cDNAs were synthesized from the purified total RNA with qScript cDNA supermix (Quanta Bio, Gaithersburg, Md., USA). Real-time PCR was performed with Power SYBR Green PCR master mix (Thermo Fisher Scientific) on 7500 Real Time PCR system (Thermo Fisher Scientific). Sequence primers for mouse Bak were […] (forward) (SEQ ID NO: 11) and […] (reverse) (SEQ ID NO:12). For mouse Ezh2, […] (forward) (SEQ ID NO:13) and […] (reverse) (SEQ ID NO:14). For mouse Actb, […] (forward) (SEQ ID NO:15) and […] (reverse) (SEQ ID NO:16) were used as endogenous control.
A general note: Real-time PCR tracks product formation cycle by cycle.

The test system of the next data set is EZH2 protein. Kind of data set: EZH2 immunoblot in chimera-treated MDA-MB-231 cells. Format: cell-based, human. The note with it: 167 nM chimeras for 2 days. Here is the method:
The cell lysate from MDA-MB-231 cells treated with 167 nM chimeras for 2 days were fractionated by SDS-PAGE and then transferred to PVDF membrane (EMD Millipore, Billerica, Mass., USA). Following blocking with 5% FBS in tris-buffered saline, the membrane was incubated with primary antibody against EZH2 (D2C2) and Histone H3 (Cat #9715) (Cell Signaling Technologies, Danvers, Mass., USA) overnight at 4° C. and then incubated with horseradish peroxidase-conjugated anti-mouse and rabbit IgGs (Thermo Fisher Scientific) for 1 hr. respectively. The antigen-antibody immunoreactivity was detected in ChemiDoc Touch Imaging System (Bio-Rad Hercules, Calif., USA) using SuperSignal West Pico Chemiluminescent Substrate (Thermo Fisher Scientific).
A general note: Immunoblotting shows a protein as a band on a membrane.

Entries after “also recorded” stand apart in the source; their conditions may differ. [C3] = C3 (propyl) spacer linking the 3' end of the DNA aptamer to the passenger RNA

As to `N.N.O=C([O-])C1(C(=O)[O-])CCC1.[Pt+2]` [carboplatin, reference compound], the “red blood cells after carboplatin” value in the data set with hematopoiesis (day 10) was “reduction of red blood cells was also observed”. In the data set with hematopoiesis (single high dose of carboplatin, day 5, compared with vehicle), the “hematopoiesis: WBC and platelet counts after carboplatin” value is “significant defects in hematopoiesis; also recorded: significantly reduced WBC and platelet counts”.

B1: KIT-targeting miR-26a chimera: anti-human KIT DNA aptamer-C3-passenger RNA, passenger RNA-TEG-cholesterol and miR-26a-5p guide strand annealed (SEQ ID NO:4/5, 8, 9) (nucleic acid)
chain 1: GAGGCATACCAGCTTATTCAAGGGGCCGGGGCAAGGGGGGGGTACCGTGGTAGGACATAGTAAGTGCAATCTGCGAA
chain 2: CCUAUUCUGG
chain 3: GUUACUUGCACG
guide: UUCAAGUAAUCCAGGAUAGGCU
modifications: chain 1: DNA, 3' [C3], backbone not given here; chain 2: chemistry not given here; chain 3: chemistry not given here; guide: chemistry not given here; DNA aptamer joined by C3 spacer to passenger RNA, annealed three-part chimera
For B1, the “Annexin V positive cells (apoptosis) of MDA-MB-231 cells” value in the data set with MDA-MB-231 cells [1] (flow cytometry) is on record as “induced apoptosis; also recorded: induction of apoptosis”. In addition, in the data set with MDA-MB-231 cells [1] (hemocytometer), the “MDA-MB-231 cell numbers (growth)” value was “suppressed the growth; also recorded: inhibited cell growth”. Besides, the “tumor growth (tumor volume)” value in data set [2] (5 or 10 daily intravenous injections, 670 pmol/20 g) is reported as “significantly suppressed the tumor growth”. Also, the survival result in data set [2] (5 or 10 daily intravenous injections, 670 pmol/20 g, log-rank test vs control chimera) is “extended their survival”. Moreover, the “miR-26a in KIT+ tumor cells” value in data set [2] (NSG mice, MDA-MB-231 tumor, 3 days after intravenous injection 670 pmol/20 g, qPCR) is “Significant increase; also recorded: significant elevation”. The “miR-26a in KIT tumor cells (KIT-negative population)” value in data set [2] (NSG mice, MDA-MB-231 tumor, 3 days after single injection, qPCR) is “No increase”. Also, the “miR-26a expression in the MDA-MB-231 cells” value with MDA-MB-231 cells [3] is “significant increase; also recorded: successfully delivered miR-26a”. The EZH2 protein expression result in the data set on EZH2 protein is “significant suppression; also recorded: significantly suppressed”.
